According to patent US20240158497A1 (published 2024):

T1: full length human GP130 (L2V natural variant) on HEK293/Stat3-luc/gp130-2X Sort cells (human, UniProt P40189 23-918)
T1 construct: whole, on cells; Stably over-expressed on HEK293 cells, sorted twice for high expression; also called HEK293/gp130 2X Sort
T1 sequence (looked up): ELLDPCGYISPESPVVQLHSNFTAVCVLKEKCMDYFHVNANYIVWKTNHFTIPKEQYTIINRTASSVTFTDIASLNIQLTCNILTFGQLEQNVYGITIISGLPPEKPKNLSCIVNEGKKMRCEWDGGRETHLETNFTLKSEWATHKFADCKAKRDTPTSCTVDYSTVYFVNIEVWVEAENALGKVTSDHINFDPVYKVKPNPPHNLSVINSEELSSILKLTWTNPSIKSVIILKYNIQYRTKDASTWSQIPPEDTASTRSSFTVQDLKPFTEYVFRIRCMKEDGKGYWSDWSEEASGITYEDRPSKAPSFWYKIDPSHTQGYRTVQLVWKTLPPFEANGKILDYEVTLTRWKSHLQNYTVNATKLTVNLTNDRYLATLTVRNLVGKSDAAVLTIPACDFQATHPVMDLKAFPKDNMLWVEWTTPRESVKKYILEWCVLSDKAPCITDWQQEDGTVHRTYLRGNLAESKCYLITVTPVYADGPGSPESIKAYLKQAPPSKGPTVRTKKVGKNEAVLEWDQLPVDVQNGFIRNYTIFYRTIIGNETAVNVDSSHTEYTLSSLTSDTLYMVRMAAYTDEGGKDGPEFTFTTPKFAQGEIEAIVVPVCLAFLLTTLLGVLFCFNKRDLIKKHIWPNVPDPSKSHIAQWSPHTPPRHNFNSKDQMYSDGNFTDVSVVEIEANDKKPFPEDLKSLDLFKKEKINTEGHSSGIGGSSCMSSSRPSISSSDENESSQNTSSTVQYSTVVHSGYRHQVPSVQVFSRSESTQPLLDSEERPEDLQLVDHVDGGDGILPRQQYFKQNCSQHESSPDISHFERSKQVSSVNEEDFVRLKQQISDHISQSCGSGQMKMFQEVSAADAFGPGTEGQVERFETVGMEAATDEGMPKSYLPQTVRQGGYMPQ


Target: T1, full length human GP130 (L2V natural …)
Experiment: FACS, 200 nM antibody on HEK293/gp130 2X Sort cells
Protocol: For the FACS analysis, 0.5×10^6 cells/well of HEK293 parental cells, HEK293/Stat3-luc/gp130-2 X Sort cells, and HEK293/hLEPR-GPI cells, were incubated with 200 nM of the conventional antibodies against either GP130 or LEPR or with LEPRxGP130 bispecific antibodies, along with isotype control antibodies at 4° C. in PBS (without calcium and magnesium) containing 2% FBS.
Cells were fixed using BD CytoFix™ (Becton Dickinson, #554655) and analyzed on an IQue® (Intellicyt) Flow Cytometer. Unstained and secondary antibody alone controls were also tested for all cell lines. The results were analyzed using ForeCyt® (IntelliCyt) and FlowJo version 10 softwares to determine the geometric means of fluorescence for viable cells.

Row | Binder | Binding Ratio, normalized to unstained sample (FL4-A) [fold]
1 | bsAb21236D (bispecific antibody, V domains shown, LEPR x GP130 bispecific with common light chain; also called H4H21236D; bsAb21236 (LEPR × GP130)) VH 1: QVQLQESGPGLVKPSQTLSLTCTVSGGSISSGGDYWSWIRQLPGKGLEWIGYIYYSGSAYYNPSLKSRGTISIDTSKNQFSLKLTSVTAADTAVYFCVKLRFLEWFLGGWFGPWGQGTLVTVSS VH 2: QVQLVESGGGLVKPGGSLRLSCAASGFTFSDYYMTWIRQTPGKGLDWVSYISSSGTNKYNADSVKGRFTISRDNAKNSLYLQMNSLRAEDTAVYYCVRDPPWGMDVWGQGTTVTVSS VL: not shown | 132
2 | bsAb21237D (bispecific antibody, V domains shown, LEPR x GP130 bispecific with common light chain; also called H4H21237D; bsAb21237 (LEPR × GP130)) VH 1: EVQLVESGGGLVQPGGSLRLSCAASGFTFSNYGMTWVRQAPGKGLEWVSAITGGGGSTYYSNSVKGRFTISRDNSKNTVYLRMNSVRAEDTAVYYCAKYKWNFVDDWGQGTTVTVSS VH 2: QVQLVESGGGLVKPGGSLRLSCAASGFTFSDYYMTWIRQTPGKGLDWVSYISSSGTNKYNADSVKGRFTISRDNAKNSLYLQMNSLRAEDTAVYYCVRDPPWGMDVWGQGTTVTVSS VL: not shown | 169
